Laboratory results taken from US20070160576A1, “IL-17A/F heterologous polypeptides and therapeutic uses thereof” (Genentech, Inc., priority 2001, published 2007).
Entries after “also recorded” stand apart in the source; their conditions may differ. Like-named read-outs stand apart in the source and are kept apart here.

T1: PRO5801 (human IL-17RH1 receptor) (Homo sapiens, UniProt Q9NRM6)
T1 sequence (Q9NRM6 18-502): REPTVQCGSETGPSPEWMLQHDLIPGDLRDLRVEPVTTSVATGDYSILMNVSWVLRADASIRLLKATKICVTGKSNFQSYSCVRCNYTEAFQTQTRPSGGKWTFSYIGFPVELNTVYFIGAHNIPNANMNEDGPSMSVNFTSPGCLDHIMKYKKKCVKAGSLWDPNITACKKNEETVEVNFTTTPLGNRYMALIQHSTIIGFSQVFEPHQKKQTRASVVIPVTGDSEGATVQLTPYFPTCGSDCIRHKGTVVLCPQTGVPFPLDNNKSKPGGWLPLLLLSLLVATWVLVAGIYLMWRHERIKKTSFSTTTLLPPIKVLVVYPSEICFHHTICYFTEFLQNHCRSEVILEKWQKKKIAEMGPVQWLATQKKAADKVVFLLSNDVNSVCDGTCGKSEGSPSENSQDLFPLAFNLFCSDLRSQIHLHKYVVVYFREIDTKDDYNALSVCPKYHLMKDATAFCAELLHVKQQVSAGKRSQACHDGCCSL

T2: PRO20040 (human IL-17RH2 receptor) (Homo sapiens, UniProt Q8NAC3)
T2 sequence (Q8NAC3 21-791): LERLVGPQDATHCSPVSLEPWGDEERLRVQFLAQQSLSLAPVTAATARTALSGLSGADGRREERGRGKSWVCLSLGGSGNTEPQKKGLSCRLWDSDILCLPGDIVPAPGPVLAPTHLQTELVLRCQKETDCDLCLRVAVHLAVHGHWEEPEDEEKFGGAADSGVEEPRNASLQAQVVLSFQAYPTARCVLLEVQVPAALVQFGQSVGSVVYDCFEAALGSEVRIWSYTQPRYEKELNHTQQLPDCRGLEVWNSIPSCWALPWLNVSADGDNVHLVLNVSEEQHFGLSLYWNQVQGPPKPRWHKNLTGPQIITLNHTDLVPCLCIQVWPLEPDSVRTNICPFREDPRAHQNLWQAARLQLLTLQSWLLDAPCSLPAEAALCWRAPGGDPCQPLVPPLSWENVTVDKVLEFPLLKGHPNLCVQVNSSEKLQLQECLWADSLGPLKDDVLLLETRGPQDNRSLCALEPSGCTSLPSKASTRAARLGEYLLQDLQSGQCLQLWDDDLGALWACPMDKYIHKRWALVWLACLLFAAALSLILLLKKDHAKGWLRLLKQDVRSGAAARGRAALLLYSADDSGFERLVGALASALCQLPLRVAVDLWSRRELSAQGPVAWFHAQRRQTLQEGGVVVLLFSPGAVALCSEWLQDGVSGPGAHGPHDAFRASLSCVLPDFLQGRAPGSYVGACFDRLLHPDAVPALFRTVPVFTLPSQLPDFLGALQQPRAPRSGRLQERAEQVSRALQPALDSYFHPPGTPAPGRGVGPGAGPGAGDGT


Assays:
Assay in all cases: Receptor/ligand interaction screening assay (immunoadhesin)
Assay type in all cases: binding
[1] = biological target: T1, PRO5801 (human IL-17RH1 receptor)
Description: (§1) In general, the assay is performed as follows. A PRO polypeptide of the present invention suspected of being a ligand for a receptor is expressed as a fusion protein containing the Fc domain of human IgG (an immunoadhesin). Receptor-ligand binding is detected by allowing interaction of the immunoadhesin polypeptide with cells (e.g. Cos cells) expressing candidate PRO polypeptide receptors and visualization of bound immunoadhesin with fluorescent reagents directed toward the Fc fusion domain and examination by microscope. Cells expressing candidate receptors are produced by transient transfection, in parallel, of defined subsets of a library of cDNA expression vectors encoding PRO polypeptides that may function as receptor molecules. Cells are then incubated for 1 hour in the presence of the PRO polypeptide immunoadhesin being tested for possible receptor binding. The cells are then washed and fixed with paraformaldehyde. The cells are then incubated with fluorescent conjugated antibody directed against the Fc portion of the PRO polypeptide immunoadhesin (e.g. FITC conjugated goat anti-human-Fc antibody). The cells are then washed again and examined by microscope. A positive interaction is judged by the presence of fluorescent labeling of cells transfected with cDNA encoding a particular PRO polypeptide receptor or pool of receptors and an absence of similar fluorescent labeling of similarly prepared cells that have been transfected with other cDNA or pools of cDNA. If a defined pool of cDNA expression vectors is judged to be positive for interaction with a PRO polypeptide immunoadhesin, the individual cDNA species that comprise the pool are tested individually (the pool is “broken down”) to determine the specific cDNA that encodes a receptor able to interact with the PRO polypeptide immunoadhesin.
(§2) In another embodiment of this assay, an epitope-tagged potential ligand PRO polypeptide (e.g., 8 histidine “His” tag) is allowed to interact with a panel of potential receptor PRO polypeptide molecules that have been expressed as fusions with the Fc domain of human IgG (immunoadhesins). Following a 1 hour co-incubation with the epitope tagged PRO polypeptide, the candidate receptors are each immunoprecipitated with protein A beads and the beads are washed. Potential ligand interaction is determined by Western blot analysis of the immunoprecipitated complexes with antibody directed towards the epitope tag. An interaction is judged to occur if a band of the anticipated molecular weight of the epitope tagged protein is observed in the Western blot analysis with a candidate receptor, but is not observed to occur with the other members of the panel of potential receptors.

[2] = biological target: T2, PRO20040 (human IL-17RH2 receptor)
Description: as §1, §2

[3] = biological target: human IL-17 receptor (IL-17R, PRO1) (Homo sapiens, UniProt Q96F46)
Description: as §1, §2

Molecule	binding to IL-17RH1 receptor (PRO5801) [1]	binding to IL-17RH2 receptor (PRO20040) [2]	binding to human IL-17 receptor (IL-17R, PRO1) [3]	binding to IL-17RH2 receptor (PRO20040) ([2]; listed as PRO20110)	binding to human IL-17 receptor (IL-17R, PRO1) ([3]; listed as PRO1122)
PRO21175 (IL-17D ligand) (ligand, UniProt Q8TAD2 16-202, looked up) AGAPRAGRRPARPRGCADRPEELLEQLYGRLAAGVLSAFHHTLQLGPREQARNASCPAGGRPADRRFRPPTNLRSVSPWAYRISYDPARYPRYLPEAYCLCRGCLTGLFGEEDVRFRSAPVYMPTVVLRRTPACAGGRSVYTEAYVTIPVGCTCVPEPEKDADSINSSIDKQGAKLLLGPNDAPAGP	do not interact	do not interact	do not interact	–	–
IL-17F: human IL-17F ligand, SEQ ID NO:4 (protein, listed as Homo sapiens) MTVKTLHGPAMVKYLLLSILGLAFLSEAAARKIPKVGHTFFQKPESCPPVPGGSMKLDIGIINENQRVSMSRNIESRSTSPWNYTVTWDPNRYPSEVVQAQCRNLGCINAQGKEDISMNSVPIQQETLVVRRKHQGCSVSFQLEKVLVTVGCTCVTPVIHHVQ	–	has been shown to bind; also recorded: binds to	binds to	binds to	–
PRO1122 (IL-17C ligand) (ligand, UniProt Q9P0M4 19-197, looked up) HHDPSLRGHPHSHGTPHCYSAEELPLGQAPPHLLARGAKWGQALPVALVSSLEAASHRGRHERPSATTQCPVLRPEEVLEADTHQRSISPWRYRVDTDEDRYPQKLAFAECLCRGCIDARTGRETAALNSVRLLQSLLVLRRRPCSRDGSGLPTPGAFAFHTEFIHVPVGCTCVLPRSV	do not interact	do not interact	do not interact	–	do not bind
